Usually stoichiometry N stands for a count of units in the complex or per binding partner.

The results in this text go back to publication PMC4142084 (Molecular cell, 2014).

Residue numbers refer to the chain shown, from its start.

This series deals with the molecule itself. The series can be described thus: cross-linking.

B1: purified recombinant FLAG-6PGD (6-phosphogluconate dehydrogenase) WT (enzyme, human)
chain: MAQADIALIGLAVMGQNLILNMNDHGFVVCAFNRTVSKVDDFLANEAKGTKVVGAQSLKEMVSKLKKPRRIILLVKAGQAVDDFIEKLVPLLDTGDIIIDGGNSEYRDTTRRCRDLKAKGILFVGSGVSGGEEGARYGPSLMPGGNKEAWPHIKTIFQGIAAKVGTGEPCCDWVGDEGAGHFVKMVHNGIEYGDMQLICEAYHLMKDVLGMAQDEMAQAFEDWNKTELDSFLIEITANILKFQDTDGKHLLPKIRDSAGQKGTGKWTAISALEYGVPVTLIGEAVFARCLSSLKDERIQASKKLKGPQKFQFDGDKKSFLEDIRKALYASKIISYAQGFMLLRQAATEFGWTLNYGGIALMWRGGCIIRSVFLGKIKDAFDRNPELQNLLLDDFFKSAVENCQDSWRRAVSTGVQAGIPMPCFTTALSFYDGYRHEMLPASLIQAQRDYFGAHTYELLAKPGQFIHTNWTGHGGTVSSSSYNA
modifications: background lysine acetylation; acetylation at K76 and K294 increased after incubation with lysates of NAM+TSA-treated H1299 cells
For B1, the “stoichiometry N” value was 2.

B2: purified recombinant FLAG-6PGD K76R (enzyme, human)
chain: B1 chain with K76R
modifications: acetylation at K294 increased after incubation with lysates of NAM+TSA-treated H1299 cells
On to B2, for which the “stoichiometry N” value stood at 2.
